Patent US20110091994A1, “Methods for Screening Compounds for Treating and/or Preventing an Hepatitis C Virus Infection” (priority 2008, published 2011)
Where two headings read alike, the source gives them in different places.

What was measured:
[1] = biological target: T1, HCV ORFs (Gal4-DB fusions) (Hepatitis C virus genotype 1b, UniProt Q9WMX2); assay type: binding, HCV genotype 1b, isolate con1; conditions: human protein as prey
T1 construct: expressed in transfected cells; host or cells: Saccharomyces cerevisiae MAV203 (IMAP1) / AH109 (IMAP2)

[2] = tested on: HCV ORFs (Gal4-DB fusions); assay type: binding, HCV genotype 1b, isolate con1; conditions: human protein listed by gene symbol; the value names the HCV protein it interacts with
[3] = biological target: T2, GST-tagged viral proteins (Hepatitis C virus genotype 1b, UniProt Q9WMX2); assay: Validation by co-affinity purification (CoAP); assay type: binding, HCV genotype 1b, isolate con1; parameters: key: +: IMAP validation; −: not validated; NA: non assayable due to default of protein expression or to cellular protein directly interacting with GST
T2 construct: expressed in transfected cells; host or cells: HEK-293T
Method in brief: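 HEK-293T cells were co-transfected with N-terminal GST-tagged HCV bait and 3xFLAG-tagged human prey ORFs, with GST alone as control. Two days later, lysates (0.5% NP-40, pH 8.0) were pulled down on glutathione beads. Preys were detected by anti-FLAG immunoblot after SDS-PAGE.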

HCV proteins = biological target: T3, HCV proteins (Hepatitis C virus genotype 1b, UniProt Q9WMX2); assay: Validation by Y2H pairwise matrices; assay type: binding; conditions: validation of interaction with HCV protein NS3;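 further: yeast two-hybrid pairwise tests of interactions first found in Y2H screens of HCV bait proteins against human cDNA libraries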
T3 construct: expressed in transfected cells
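Wherever IMAP Y2H IMAP1 (number of IST) is given: yeast two-hybrid screens using HCV genotype 1b proteins fused to Gal4-DB as baits against prey cDNA libraries from human spleen and foetal brain, IMAP1 via transformation and IMAP2 via mating.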
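Wherever IMAP Y2H IMAP2 (number of IST) is given: yeast two-hybrid screens using HCV genotype 1b proteins fused to Gal4-DB as baits against prey cDNA libraries from human spleen and foetal brain, IMAP1 via transformation and IMAP2 via mating.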
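Wherever Interaction with viral protein is given: yeast two-hybrid screens using HCV genotype 1b proteins fused to Gal4-DB as baits against prey cDNA libraries from human spleen and foetal brain, IMAP1 via transformation and IMAP2 via mating.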

T3 sequence (Q9WMX2 1027-1657): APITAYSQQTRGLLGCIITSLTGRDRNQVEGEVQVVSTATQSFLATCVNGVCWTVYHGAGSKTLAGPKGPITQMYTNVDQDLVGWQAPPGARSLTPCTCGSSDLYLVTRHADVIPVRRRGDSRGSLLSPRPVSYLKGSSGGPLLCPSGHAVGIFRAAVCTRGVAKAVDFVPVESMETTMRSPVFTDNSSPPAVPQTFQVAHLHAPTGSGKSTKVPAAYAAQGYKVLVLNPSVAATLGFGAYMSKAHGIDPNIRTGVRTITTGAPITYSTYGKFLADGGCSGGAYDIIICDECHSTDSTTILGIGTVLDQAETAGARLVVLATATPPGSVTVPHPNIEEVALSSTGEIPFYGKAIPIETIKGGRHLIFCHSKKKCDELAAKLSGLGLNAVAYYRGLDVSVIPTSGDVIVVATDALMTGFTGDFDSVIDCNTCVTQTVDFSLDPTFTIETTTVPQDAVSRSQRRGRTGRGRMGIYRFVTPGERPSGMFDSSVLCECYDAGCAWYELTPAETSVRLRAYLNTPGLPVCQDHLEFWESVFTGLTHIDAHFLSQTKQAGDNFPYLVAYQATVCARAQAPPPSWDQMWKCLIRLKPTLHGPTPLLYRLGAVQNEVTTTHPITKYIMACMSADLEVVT

| Molecule | IMAP Y2H IMAP1 (number of IST) ([1]; HCV protein NS3 as bait) | IMAP Y2H IMAP2 (number of IST) ([1]; HCV protein NS3 as bait) | Interaction with viral protein [2] | CoAP ([3]; validation of interaction with HCV protein NS3) | Y2H matrices (HCV proteins) | IMAP Y2H IMAP2 (number of IST) ([1]; HCV protein NS5A as bait) | CoAP ([3]; interaction with HCV protein NS5A) |
| --- | --- | --- | --- | --- | --- | --- | --- |
| RAI14 (protein, UniProt Q9P0K7 1-980, looked up) Ankycorbin: MKSLKAKFRKSDTNEWNKNDDRLLQAVENGDAEKVASLLGKKGASATKHDSEGKTAFHLAAAKGHVECLRVMITHGVDVTAQDTTGHSALHLAAKNSHHECIRKLLQSKCPAESVDSSGKTALHYAAAQGCLQAVQILCEHKSPINLKDLDGNIPLLLAVQNGHSEICHFLLDHGADVNSRNKSGRTALMLACEIGSSNAVEALIKKGADLNLVDSLGYNALHYSKLSENAGIQSLLLSKISQDADLKTPTKPKQHDQVSKISSERSGTPKKRKAPPPPISPTQLSDVSSPRSITSTPLSGKESVFFAEPPFKAEISSIRENKDRLSDSTTGADSLLDISSEADQQDLLSLLQAKVASLTLHNKELQDKLQAKSPKEAEADLSFDSYHSTQTDLGPSLGKPGETSPPDSKSSPSVLIHSLGKSTTDNDVRIQQLQEILQDLQKRLESSEAERKQLQVELQSRRAELVCLNNTEISENSSDLSQKLKETQSKYEEAMKEVLSVQKQMKLGLVSPESMDNYSHFHELRVTEEEINVLKQDLQNALEESERNKEKVRELEEKLVEREKGTVIKPPVEEYEEMKSSYCSVIENMNKEKAFLFEKYQEAQEEIMKLKDTLKSQMTQEASDEAEDMKEAMNRMIDELNKQVSELSQLYKEAQAELEDYRKRKSLEDVTAEYIHKAEHEKLMQLTNVSRAKAEDALSEMKSQYSKVLNELTQLKQLVDAQKENSVSITEHLQVITTLRTAAKEMEEKISNLKEHLASKEVEVAKLEKQLLEEKAAMTDAMVPRSSYEKLQSSLESEVSVLASKLKESVKEKEKVHSEVVQIRSEVSQVKREKENIQTLLKSKEQEVNELLQKFQQAQEELAEMKRYAESSSKLEEDKDKKINEMSKEVTKLKEALNSLSQLSYSTSSSKRQSQQLEALQQQVKQLQNQLAECKKQHQEVISVYRMHLLYAVQGQMDEDVQKVLKQILTMCKNQSQKK | 1 | 2 | NS3 | − | + |  |  |
| TXNDC11 (protein, UniProt Q6PKC3 1-985, looked up) Thioredoxin domain-containing …: MSECGGRGGGSSSSEDAEDEGGGGGGPAGSDCLSSSPTLATASSAGRLRRGLRGAFLMARQRPELLCGAVALGCALLLALKFTCSRAKDVIIPAKPPVSFFSLRSPVLDLFQGQLDYAEYVRRDSEVVLLFFYAPWCGQSIAARAEIEQAASRLSDQVLFVAINCWWNQGKCRKQKHFFYFPVIYLYHRSFGPIEYKGPMSAVYIEKFVRRVMKPLLYIPSQSELLDFLSNYEPGVLGYFEFSGSPQPPGYLTFFTSALHSLKKALESTSSPRALVSFTGEWHLETKIYVLDYLGTVRFGVITNKHLAKLVSLVHSGSVYLHRHFNTSLVFPREVLNYTAENICKWALENQETLFRWLRPHGGKSLLLNNELKKGPALFLFIPFNPLAESHPLIDEITEVALEYNNCHGDQVVERLLQHLRRVDAPVLESLALEVPAQLPDPPTITASPCCNTVVLPQWHSFSRTHNVCELCVNQTSGGMKPSSVSVPQCSFFEMAAALDSFYLKEQTFYHVASDSIECSNFLTSYSPFSYYTACCRTISRGVSGFIDSEQGVFEAPTVAFSSLEKKCEVDAPSSVPHIEENRYLFPEVDMTSTNFTGLSCRTNKTLNIYLLDSNLFWLYAERLGAPSSTQVKEFAAIVDVKEESHYILDPKQALMKLTLESFIQNFSVLYSPLKRHLIGSGSAQFPSQHLITEVTTDTFWEVVLQKQDVLLLYYAPWCGFCPSLNHIFIQLARNLPMDTFTVARIDVSQNDLPWEFMVDRLPTVLFFPCNRKDLSVKYPEDVPITLPNLLRFILHHSDPASSPQNVANSPTKECLQSEAVLQRGHISHLEREIQKLRAEISSLQRAQVQVESQLSSARRDEHRLRQQQRALEEQHSLLHAHSEQLQALYEQKTRELQELARKLQELADASENLLTENTWLKILVATMERKLEGRDGAESLAAQREVHPKQPEPSATPQLPGSSPPPANVSATLVSERNKENRTD | 2 |  | NS3 |  | + | 1 | + |
